Measured values: paper PMC7118224, “Molecular and Functional Analysis of Pore-Forming Toxin Monalysin From Entomopathogenic Bacterium Pseudomonas entomophila” (Frontiers in Immunology, 2020)

What was measured:
[1] = biological target: endogenous pro-Monalysin (Pseudomonas entomophila (endogenous in strain L48)) (UniProt Q1I8U1); assay: high-speed atomic force microscopy; on mica surface in PBS buffer, room temperature (24-26°C)
[2] = biological target: endogenous pro-Monalysin (Pseudomonas entomophila (endogenous in strain L48)) (UniProt Q1I8U1); assay: high-speed atomic force microscopy; on mica surface in low salt buffer (30 mM NaCl, 10 mM sodium phosphate, pH 7.0), strongly immobilised
[3] = biological target: the molecule itself; assay: MALDI-TOF MS; active-Monalysin mixed with sinapic acid matrix; molecular weight of the multimer
[4] = biological target: the molecule itself; assay: high-speed atomic force microscopy; on mica surface in low salt buffer (30 mM NaCl, 10 mM sodium phosphate, pH 7.0), strongly immobilised

Q: What does the source list for “endogenous pro-Monalysin (from UniProt Q1I8U1 1-271) (natural protein)”?
A: stoichiometry N [1]: 16; stoichiometry N [2]: 8

B1: active-Monalysin (trypsin-treated endogenous pro-Monalysin) (natural protein, UniProt Q1I8U1 34-271, looked up)
chain: NLSGRFDQYPTKKGDFAIDGYLLDYSSPKQGCWVDGITVYGDIYIGKQNWGTYTRPVFAYLQYVETISIPQNVTTTLSYQLTKGHTRSFETSVNAKYSVGANIDIVNVGSEISTGFTRSESWSTTQSFTDTTEMKGPGTFVIYQVVLVYAHNATSAGRQNANAFAYSKTQAVGSRVDLYYLSAITQRKRVIVPSSNAVTPLDWDTVQRNVLMENYNPGSNSGHFSFDWSAYNDPHRRY
notes: Monalysin of Pseudomonas entomophila, product of trypsin cleavage of the pro-form; monomer of 27 kDa on SDS-PAGE; also called active-form; cleaved mature form; source: purified pro-Monalysin from P. entomophila L48, treated with trypsin (0.2 mg/mL, 25°C, 10 min)
Q: For B1, which “stoichiometry N” value [3] is on record?
A: ~8

Q: And the “stoichiometry N” value [4]?
A: 8
